Consider 21 variants from the RNAGym collection of RNA variant scans (doi:10.1073/pnas.2313332121).

B1: TPR t1 (parent)
chain: GACCAAUCUGCCCUCAGAGCUCGAGAACAUCUUCGGAUGCAGAGGAGGCAGGCUUCGGUGGCGCGAUAGCGCCAACGUCCUCAACCUCCAAUGCAUCCCACCACAUGAUGAUGCCUGAAGAGCCUUGGUUUUUUG

Variants of B1 are the subject of the data set. Nature of the data set: polymerase ribozyme fitness, log enrichment relative to wild type (log ratio); higher = more active; in vitro selection for triplet polymerase activity. In short, it runs like this:
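A single round of triplicate in vitro selection, including frozen incubation at −7 °C, was applied to PCR-built, transcribed mutant libraries of each subunit of a heterodimeric triplet polymerase ribozyme. Illumina sequencing of input and output libraries retained genotypes with ≥10 input reads and ≥1 read per output. Fitness is the base-2 logarithm of genotype enrichment divided by wild-type enrichment, from inverse-variance-weighted replicate averages.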
Consider GACCAAUCUGCCCUCAGAGCUCGAGAACAUCUUCGGAUGCAGAGGAGACAGGCUUCGGUGGCUCGAUAGCGCCAACGUCCUCAACCUCCAAUGCAUCCCACCACAUGAUGAUGCCUGAAGAGCCUUGGUUUUUUG [G48A G63U], for which the “polymerase ribozyme fitness (log ratio)” value was -0.443.
To GACCAAUCUGCCCUCAGAGCUCGAGAACAUCUUCGGAUGCAGAGGAGACAGGCUUCGGUGGCGCGAUAGCGCUAACGUCCUCAACCUCCAAUGCAUCCCACCACAUGAUGAUGCCUGAGGAGCCUUGGUUUUUUG [G48A C73U A119G] belongs 0.718.
Consider GACCAAUCUGCCCUCAGAGCUCGAGAACAUCUUCGGAUGCAGAGGAGACAGGCUUCGGUGGCACGAUAGCGCCAACGUCCUCAACCUCCAAUGCAUCCCAACACAUGAUGAUGCCUGAAGAGCCUUGGUUUUUUG [G48A G63A C101A], for which the “polymerase ribozyme fitness (log ratio)” value is -2.45.
As for GACCAAUCUGCCCUCAGAGCUCGAGAACAUCUUCGGAUGCAGAGGAUGCAGGCUUCGGUGGCGCGAUAGCGCCAACGUCCUCAACCACCAAUGCAUCCCACCACAUGAUGAUGCCUGAAGAGCCUUGGUUUUUUG [G47U U87A], the “polymerase ribozyme fitness (log ratio)” value is -2.55.
To GACCAAUCUGCCCUCAGAGCUCGAGAACAUCUUCGGAUGCAGAGGAUGCAGGCUUCGGUGGCGCGAUAGCGCCAACGUCCUCAACCUCCAAUGCAACCCACCACAUGAUGAUGCCUGAAGAGCCUUGGUUUUUUG [G47U U96A] belongs -2.1; to GACCAAUCUGCCCUCAGAGCUCGAGAACAUCUUCGGAUGCAGAGGAGACAGGCUUCGGUGGAGCGAUAGCGCCAACGUCCUAAAGCUCCAAUGCAUCCCACCACAUGAUCAUGCCUGAAGAGCCUUGGUUUUAUG [G48A C62A C82A C85G G110C U133A], -7.12.
To GACCAAUCUGCCCUCAGAGCUCGAGAACAUCUUCGGAUGCAGAGGAGACAGGCUUCGAUGGCGCGAUAGCGCCAACGCCCUCAACCUCCAAUGCAUCCCACCACAUGAUAAUGCCUGAAGAGCCUUGGUUUUUUG [G48A G58A U78C G110A] belongs -1.9; to GACCAAUCUGCCCUCAGAGCUCGAGAACAUCUUCGGAUGCAGAGGAGACAGGCUUCGGUGGCACGAUAGCGCCAACGUCCUCAACUUCCAAUGCAUCCCACCACAUGAUGAUGCCAGAAGAGCUUUGGUUUUUUG [G48A G63A C86U U116A C124U], -2.18.
To GACCAAUCUGCCCUCAGAGCUCGAGAACAUCUUCGGAUGCAGAGGAGACAGGCUUCGGUGGCGCGAUAGUGCCAACGUCCUCAACCUCCAAUGCAUCCCACCACAUGAUGAUGCCUGAAGAGCCUUGGUUUUUUG [G48A C70U] belongs -1.3.
In the case of GACCAAUCUGCCCUCAGAGCUCGAGAACAUCUUCGGAUGCAGAGGAGACAGGCUUCGGUGGCACGAUAGCGCCAACGUCCUCAACCUCCAACGCAUCCCACCACAUGAUGAUGCCUGAAGAGCCUUGGUUUUUUG [G48A G63A U92C], the “polymerase ribozyme fitness (log ratio)” value was -3.14.
To GACCAAUCUGCCCUCAGAGCUCGAGAACAUCUUCGGAUGCAGAGGAGACAGGUUUCGGUGGCUCGAUAGCGCCAACGUCCUCAACCUCCAAUGCAUCCCACCACAUGAUAAUGCCUGAAGAGCCUUGGUUUUUUG [G48A C53U G63U G110A] belongs -3.27; to GACCAAUCUGCCCUCAGAGCUCGAGAACAUCUUCGGAUGCAGAGGAGACAGGCUUCGGUGGCGCGAUAGAGCCAACGUCCUCAACCUCCAAUGCAUCCCACCACAUGAUGAUGCCUGAAUAGCCUUGAUUUUUUA [G48A C70A G120U G128A G135A], -2.26.
To GACCAAUCUGCCCUCAGAGCUCGAGAACAUCUUCGGAUGCAGAGGAUGCAGGCUUCGGUGGCGCGAUAGCGCCAACGUCCACAACCUCCAAUGCAUCCCACCACAUGAUGAUGCCUGAAGAUUCUUGGUCAUUUG [G47U U81A G122U C123U U130C U131A] belongs -2.99.
To GACCAAUCUGCCCUCAGAGCUCGAGAACAUCUUCGGAUGCAGAGGAUGCAGGCUUCGGUGGCGCGAUAGCGCCAACGUCCUCAACCUCCAAUGCAUCCCACCACAUGAUGAUGCCUUAAGAGCCUUGGUUUUUUG [G47U G117U] belongs -2.78; to GACCAAUCUGCCCUCAGAGCUCGAGAACAUCUUCGGAUGCAGAGGAGACAGGCUUCGGUGGCGCGAUAGCGCCAACGUCCUCAACCUCCAAUGCAUCCCACCACAUGAUGAUGCUUGAAGAGCUUUGGUUUUUUG [G48A C115U C124U], -1.31.
For the variant GACCAAUCUGCCCUCAGAGCUCGAGAACAUCUUCGGAUGCAGAGGAGACAGGCUUCGGUGGCGCGAUAGCCCCAACGUCCUCAACCUCCAAUGCAUCCCACCACCUGAUGAUGCCUGAAGAGCCUUGGUUUUUUG [G48A G71C A105C], the “polymerase ribozyme fitness (log ratio)” value was -4.88.
To GACCAAUCUGCCCUCAGAGCUCGAGAACAUCUUCGGAUGCAGAGGAGACAGGCUUCGGUGGCGUGAUAGCGCAAACGUCCUCAACCUCCAAUGCAUCCCACCACAUGAUGAUGCCUGAAGAGCCUUGGUUUUUUG [G48A C64U C73A] belongs -0.705; to GACCAAUCUGCCCUCAGAGCUCGAGAACAUCUUCGGAUGCAGAGGAGACAGGCUUCGGUGGCUCGAUAGCGCCAACGUCCUCAACCUCCAAUGCAUCCCAACACAUGAUGAUGCCUGAAGAGCCUUGGUUUUUUG [G48A G63U C101A], -2.69; to GACCAAUCUGCCCUCAGAGCUCGAGAACAUCUUCGGAUGCAGAGGAGACAGGCUUCGGUGGCCCGAUAGCGUCAACGUCCUCAACCUCCAAUGCAUCCCACCACAUGAUGAUGCCUGAAGAGCGUUGGUUUUUUG [G48A G63C C72U C124G], -0.71.
For GACCAAUCUGCCCUCAGAGCUCGAGAACAUCUUCGGAUGCAGAGGAGACAGGCUUCGGUGGCGCGAUAACGCCAACGUCCUCAACCUCCAAUGCAUCCCACCACAUGAUGAUGCCUGAAGAGCCUUGGUUUUUUG [G48A G69A], the “polymerase ribozyme fitness (log ratio)” value is -4.63.
Turning to GACCAAUCUGCCCUCAGAGCUCGAGAACAUCUUCGGAUGCAGAGGAUGCAGGCUUCGGUGGCGCGAUAGCGCCAACGGCCUCAACCUCCAAUGCAUCCCACCACAUGAUGAUGCCUGAAGAGCCUUGGUUUUUUA [G47U U78G G135A], the “polymerase ribozyme fitness (log ratio)” value was -1.83.
